Laboratory results reported in paper PMC11142921 (2024).
Changes are numbered by the printed parent chain. Where two headings read alike, the source gives them in different places. Each block holds one binder with its values, some of them ahead of it.

Assays:
Experiment in all cases: BLI
hPAD4 Y435A = hPAD4 Y435A (human, UniProt Q9UM07 1-663, Y435A)
[1] = target: hPAD4 R8E–Y435A double mutant (human, UniProt Q9UM07 1-663, R8E | Y435A)
[2] = target: T1, human protein arginine deiminase 4 (hPAD4), wild type (human, UniProt Q9UM07 1-663, biotin on the N-terminal AviTag)
hPAD4 N438R = hPAD4 N438R (human, UniProt Q9UM07 1-663, N438R)
[3] = target: T1, human protein arginine deiminase 4 …; remark: listed apart in the source
[4] = target: T1, human protein arginine deiminase 4 …; remark: listed apart in the source

T1 sequence (Q9UM07 whole entry): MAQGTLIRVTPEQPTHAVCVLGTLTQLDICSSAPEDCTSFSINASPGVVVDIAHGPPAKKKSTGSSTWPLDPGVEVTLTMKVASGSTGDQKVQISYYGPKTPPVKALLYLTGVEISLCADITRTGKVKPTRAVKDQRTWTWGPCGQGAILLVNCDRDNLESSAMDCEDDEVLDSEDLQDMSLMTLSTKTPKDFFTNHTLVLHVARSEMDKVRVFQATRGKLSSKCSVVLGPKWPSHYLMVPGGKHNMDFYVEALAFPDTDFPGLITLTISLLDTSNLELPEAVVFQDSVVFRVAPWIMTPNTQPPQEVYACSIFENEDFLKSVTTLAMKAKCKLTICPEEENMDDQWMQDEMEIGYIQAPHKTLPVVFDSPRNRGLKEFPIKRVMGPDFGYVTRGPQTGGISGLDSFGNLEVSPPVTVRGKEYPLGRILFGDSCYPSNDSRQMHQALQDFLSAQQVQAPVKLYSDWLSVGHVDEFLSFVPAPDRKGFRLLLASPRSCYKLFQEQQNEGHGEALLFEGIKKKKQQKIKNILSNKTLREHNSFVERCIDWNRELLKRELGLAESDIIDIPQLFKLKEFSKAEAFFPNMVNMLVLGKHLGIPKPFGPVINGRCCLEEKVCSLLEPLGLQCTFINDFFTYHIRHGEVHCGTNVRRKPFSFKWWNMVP
hPAD4 N438R, sequence (Q9UM07 whole entry N438R): as the sequence (Q9UM07 whole entry) above, with N438R counted along it
hPAD4 R8E–Y435A double mutant, sequence (Q9UM07 whole entry R8E/Y435A): as the sequence (Q9UM07 whole entry) above, with R8E, Y435A counted along it
hPAD4 Y435A, sequence (Q9UM07 whole entry Y435A): as the sequence (Q9UM07 whole entry) above, with Y435A counted along it

Kd [4]: 2.4 nM
B4: E3 (affinity-matured variant of hI365) (antibody, V domains shown)
VH: EVQLVESGGGLVQPGGSLRLSCAASGFNFFYSIHWVRQAPGKGLEWVASISPYTDYTSYADSVKGRFTISADTSKNTAYLQMNSLRAEDTAVYYCARKHPGSYPFWGFALDYWGQGTLVTVSS
VL: DIQMTQSPSSLSASVGDRVTITCRASQSVSSAVAWYQQKPGKAPKLLIYSASSLYSGVPSRFSGSRSGTDFTLTISSLQPEDFATYYCQQSSSSLVTFGQGTKVEIK

Kd [3]: 1.8 nM
B5: hI365 IgG (antibody, V domains shown)
VH: B4 VH with F30Y, T54S, D55G, F108W
VL: B4 VL

More lines, now with the values behind:

B1: hA362 Fab (Fab, V domains shown)
VH: EVQLVESGGGLVQPGGSLRLSCAASGFNVSYYSIHWVRQAPGKGLEWVASISPYYGSTYYADSVKGRFTISADTSKNTAYLQMNSLRAEDTAVYYCARHPYRKGYSGLDYWGQGTLVTVSS
VL: DIQMTQSPSSLSASVGDRVTITCRASQSVSSAVAWYQQKPGKAPKLLIYSASSLYSGVPSRFSGSRSGTDFTLTISSLQPEDFATYYCQQSSYLPLFTFGQGTKVEIK
Kd (hPAD4 Y435A): 17.5 nM
Kd [1]: 269 nM
Kd [2]: 1.7 nM
Kd (hPAD4 N438R): 1.56 nM

B2: hA362 IgG (antibody, V domains shown)
VH: B1 VH
VL: B1 VL
Kd [3]: 0.001 nM

B3: E6 (affinity-matured variant of hI365) (antibody, V domains shown)
VH: B4 VH with F30Y, Y56R, S102R, F105N
VL: B1 VL with S92M, Y93S, L94S, P95Q, F97V
Kd [4]: 1.3 nM
